Assays:
[1] = target: Rck, outer membrane protein of Salmonella enterica serovar Typhimurium, expressed on E. coli BL21(DE3) from plasmid pRck (Salmonella enterica serovar Typhimurium strain SL1344) (UniProt Q04817); experiment: flow cytometry on cells; E. coli BL21(DE3) pRck with wt C4BP or the CCP7 or CCP8 deletion mutant (10 µg/ml); detected with monoclonal anti-C4BP MK104, specific for CCP1 of the α-chain; MFI of wt C4BP set to 100%
[2] = target: Rck, outer membrane protein of Salmonella enterica serovar Typhimurium, expressed on E. coli BL21(DE3) from plasmid pRck (Salmonella enterica serovar Typhimurium strain SL1344) (UniProt Q04817); experiment: flow cytometry on cells; E. coli BL21(DE3) pRck in DPBS with purified C4BP (increasing amounts) or with wt C4BP or recombinant CCP deletion mutants at 10 µg/ml, 37°C; detected with sheep polyclonal anti-human C4BP; MFI of wt C4BP set to 100%
[3] = target: Rck G118D mutant (Salmonella enterica serovar Typhimurium) (UniProt Q04817); experiment: flow cytometry on cells; data not shown: FACS analysis with purified C4BP on the Rck G118D mutant against wt Rck

Substance | percent reduction in binding against wt C4BP [1] | percent reduction in binding against wt C4BP [2] | fold less C4BP bound than by wt Rck [3]
Recombinant human C4BP mutant with CCP7 of the α-chain deleted (from UniProt P04003 49-597) (complex) | 84% | 70% | 
Recombinant human C4BP mutant with CCP8 of the α-chain deleted (from UniProt P04003 49-597) (complex) | 78% | 60% | 
Human C4b-binding protein (C4BP) (from UniProt P04003 49-597; P20851 18-252) (complex) |  |  | 24 fold
